Experimental data published in patent US20120100575A1 (Biogen, published 2012).

Tests used:
human C1q (Sigma C0660) [1] = biological target: T1, human C1q (Sigma C0660) (human, UniProt P02745 23-245; P02746 28-253; P02747 29-245); assay: C1q bridging ELISA: antibody captured on plate-coated soluble human CD154, human C1q detected with sheep anti-C1q
T1 construct: The three subunits come from general knowledge of C1q; also called complement protein C1q
Procedure: (§1) The C1q binding assay was performed by coating 96 well Maxisorb ELISA plates (Nalge-Nunc Rochester, N.Y., USA) with 50 μl recombinant soluble human CD154 ligand (Karpusas et al. Structure, 15;3(12):1426 (1995) at 10 μg/ml overnight at 4° C. in PBS. The wells were aspirated and washed three times with wash buffer (PBS, 0.05% Tween 20) and blocked for ≧1 h with 200 μl/well of block/diluent buffer (0.1 M Na₂HPO₄, pH 7, 0.1 M NaCl, 0.05% Tween 20, 0.1% gelatin). The antibody to be tested was diluted in block/diluent buffer starting at 15 μg/ml with 3-fold dilutions. 50 μl were added per well, and the plates incubated for 2 h at room temperature. After aspirating and washing as above, 50 μl/well of 2 μg/ml of Sigma human C1q (C0660) diluted in block/diluent buffer was added and incubated for 1.5 h at room temperature. After aspirating and washing as above, 50 μl/well of sheep anti C1q (Serotec AHP033), diluted 3,560-fold in block/diluent buffer, was added. After incubation for 1 h at room temperature, the wells were aspirated and washed as above. […] The absorbance was read at 450 nm with a Softmax PRO instrument, and Softmax software was used to determine the relative binding affinity (C value) with a 4-parameter fit.

[2] = biological target: T2, FcγRI (CD64) on IFNγ-activated U937 cells (UniProt P12314 16-374, limits assumed); assay: FcγRI bridging assay, FIG. 13 upper panel
T2 construct: whole, on cells; also called FcRγI
T2 sequence (P12314 16-374 limits assumed): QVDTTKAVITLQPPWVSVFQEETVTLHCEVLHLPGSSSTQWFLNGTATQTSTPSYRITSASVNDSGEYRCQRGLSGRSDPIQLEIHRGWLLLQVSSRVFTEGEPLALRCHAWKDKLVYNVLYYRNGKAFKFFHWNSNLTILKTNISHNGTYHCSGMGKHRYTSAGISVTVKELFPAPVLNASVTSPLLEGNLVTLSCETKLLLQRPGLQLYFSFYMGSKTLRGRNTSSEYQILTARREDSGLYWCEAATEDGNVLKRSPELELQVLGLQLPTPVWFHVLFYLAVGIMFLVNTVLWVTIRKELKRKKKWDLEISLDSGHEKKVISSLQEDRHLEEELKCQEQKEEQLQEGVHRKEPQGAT
Procedure: (§2) Briefly, the FcγR bridging assay was performed by coating 96 well Maxisorb ELISA plates (Nalge-Nunc Rochester, N.Y., USA) with recombinant soluble human CD154 ligand (i.e., at a concentration of 1 μg/ml overnight at 4° C. in PBS; Karpusas, Hsu et al. 1995). Titrations of glycosylated or aglycosylated forms of anti-CD154 antibody (hu5c8) were then bound to CD154 for 30 minutes at 37° C., the plates were then washed, and the binding of fluorescently labeled U937 (CD64⁺) cells was measured. The U937 cells were grown in RPMI medium with 10% FBS, 10 mM HEPES, L-glutamine, and penicillin/streptomycin, split 1:2, and activated for one day prior to the assay with 1000 units/ml of IFNγ to increase Fc receptor (FcγRI) expression.
(§3) In the assays for both receptors, the Fc receptor-bearing cells were labeled with 2′,7′-bis-(2-carboxyethyl)-5-(and-6)-carboxyfluorescein acetoxymethyl ester (BCECF-AM) (Molecular Probes Eugene, Oreg., USA) for 20 minutes at 37° C. After washing to remove excess label, 1×10⁵ of the labeled cells were incubated in the assay for 30 minutes at 37° C. Unbound FcγR positive cells were removed by washing several times and plates were read on a microplate reader (Cytofluor 2350 Fluorescent Microplate Reader, Millipore Corporation Bedford, Mass., USA) at an excitation wavelength of 485 nm and an emission wavelength of 530 nm.

human C1q (Sigma C0660) [3] = biological target: T1, human C1q (Sigma C0660); assay: C1q bridging ELISA: antibody captured on plate-coated soluble human CD154, human C1q 2 µg/ml detected with sheep anti-C1q
Procedure: as §1

[4] = biological target: T2, FcγRI (CD64) on IFNγ-activated U937 …; assay: FcγRI bridging assay: antibody captured on plate-coated soluble human CD154, binding of fluorescently labeled IFNγ-activated U937 (CD64+) cells
Procedure: as §2, §3

T1 sequence (P02745 23-245 limits assumed, chain 1 of 3): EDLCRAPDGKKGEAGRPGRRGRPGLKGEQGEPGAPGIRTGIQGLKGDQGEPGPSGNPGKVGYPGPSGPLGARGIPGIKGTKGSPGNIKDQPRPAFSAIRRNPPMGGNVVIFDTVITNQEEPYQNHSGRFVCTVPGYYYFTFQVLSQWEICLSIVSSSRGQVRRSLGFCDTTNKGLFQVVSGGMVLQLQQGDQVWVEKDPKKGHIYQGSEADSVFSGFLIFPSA
T1 sequence (P02746 28-253 limits assumed, chain 2 of 3): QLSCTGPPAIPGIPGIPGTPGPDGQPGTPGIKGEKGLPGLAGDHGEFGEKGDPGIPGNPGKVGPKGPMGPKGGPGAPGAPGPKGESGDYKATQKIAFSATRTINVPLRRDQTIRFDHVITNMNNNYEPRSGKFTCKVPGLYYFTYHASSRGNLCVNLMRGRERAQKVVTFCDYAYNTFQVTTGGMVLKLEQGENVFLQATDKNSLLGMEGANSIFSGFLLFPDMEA
T1 sequence (P02747 29-245 limits assumed, chain 3 of 3): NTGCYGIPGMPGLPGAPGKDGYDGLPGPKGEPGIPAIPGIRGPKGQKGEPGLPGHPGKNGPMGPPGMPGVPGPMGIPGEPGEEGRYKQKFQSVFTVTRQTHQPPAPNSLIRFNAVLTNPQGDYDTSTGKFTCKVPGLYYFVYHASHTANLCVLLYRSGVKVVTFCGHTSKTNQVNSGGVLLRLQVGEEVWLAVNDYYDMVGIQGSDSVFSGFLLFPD

binding result (human C1q (Sigma C0660) [1])	binding result [2]	binding result (human C1q (Sigma C0660) [3])	binding result [4]	Binder
no binding	binds			hu5c8 IgG4 variant (S228P/T299A), aglycosylated (antibody, also called IgG4 T299A; aglycosyl IgG4 T299A antibody variant) heavy: not shown light: DIVLTQSPATLSVSPGERATISCRASQRVSSSTYSYMHWYQQKPGQPPKLLIKYASNLESGVPARFSGSGSGTDFTLTISSVEPEDFATYYCQHSWEIPPTFGGGTKLEIKRTVAAPSVFIFPPSDEQLKSGTASVVCLLNNFYPREAKVQWKVDNALQSGNSQESVTEQDSKDSTYSLSSTLTLSKADYEKHKVYACEVTHQGLSSPVTKSFNRGEC
		binds	binds	hu5c8 IgG1 (glycosylated parent anti-CD154 antibody) (antibody, Expressed in EBNA 293 cells; also called hu5c8 antibody; glycosylated IgG1) heavy: not shown light: DIVLTQSPATLSVSPGERATISCRASQRVSSSTYSYMHWYQQKPGQPPKLLIKYASNLESGVPARFSGSGSGTDFTLTISSVEPEDFATYYCQHSWEIPPTFGGGTKLEIKRTVAAPSVFIFPPSDEQLKSGTASVVCLLNNFYPREAKVQWKVDNALQSGNSQESVTEQDSKDSTYSLSSTLTLSKADYEKHKVYACEVTHQGLSSPVTKSFNRGEC
